Measured values taken from patent US20230193285, “BISPECIFIC PERSONALIZED APTAMERS” (Aummune Ltd., published 2023).

Assays:
[1] = target: T1, Notch2 (Homo sapiens, UniProt Q04721 Q04721:26-1677); experiment: thermofluorimetric analysis; details: tags: Fc fusion, R&D Systems
Experimental: (§1) TFA was used to determine the binding of CTL3 with its putative target Notch2.100 nM CTL3, 1 uM SYBR green I (sigma), Fc-Notch2 human (R&D Systems) or Fc-CD160 (abcam) at 20, 40, 80, 160, and 320 nM were mixed together and SYBR green and fluorescence was measured from Temp=25° C. to Temp=95° C. at 1 degree/min using RT-PCR, in triplicates. The subsequent experiment was done with 50 nM of either CTL3 (SEQ ID NO: 3), scrambled-CTL3-A (SEQ ID NO: 86), or scrambled-CTL3-B (SEQ ID NO: 87); 1 µM SYBR green I (sigma); Fc-Notch2 human (R&D Systems), Fc-Notch2 mouse (R&D Systems) or Fc-Notch2 rat at 25, 50, 100 and 200 nM similar to the former experiment.

[2] = target: CD3 epsilon (Jurkat T cells) (Homo sapiens, UniProt P07766 P07766:23-207); experiment: flow; binding to Jurkat cells, 1 h 37 C, PBS 1 mM MgCl2, BSA, tRNA; details: tags: native on Jurkat cells ATCC TIB-152; label: Cy5-CpG' complementary strand
Sequence of CD3 epsilon (Jurkat T cells) (P07766 23-207, one chain of several): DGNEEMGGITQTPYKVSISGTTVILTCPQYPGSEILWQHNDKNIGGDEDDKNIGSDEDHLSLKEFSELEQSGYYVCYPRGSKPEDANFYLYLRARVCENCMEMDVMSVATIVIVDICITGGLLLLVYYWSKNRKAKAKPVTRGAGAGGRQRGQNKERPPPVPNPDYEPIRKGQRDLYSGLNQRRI
Experimental: 5 x10⁴ Jurkat cells were washed and re-suspended in x1 folding buffer that contain 0.1% BSA and 0.01% tRNA. 0.1-80 nM of CS6 aptamer were labelled with CpG′-Cy5 tag (1:1 ratio) and folded (95℃ 5 min, ice 10 min, and maintenance at 4℃). Next, the DNA aptamers were mixed with the cells and incubated for 1 hr at 37℃ in V shape 96 well plate under gentle shaking conditions. After incubation, the cells were washed twice with folding buffer X1 and analysed via flow cytometry (CytoFlex).
Subsequently CS6 effective concentration 50 (EC₅₀) was evaluated. A serial dilution of -Cy5 labelled aptamer was incubated with Jurkat cells for 1 hr at 37℃ and assessed for binding via flow cytometry (FIG. 27).

[3] = target: T2, CD3 epsilon (Homo sapiens, UniProt P07766 P07766:23-126); experiment: SPR; details: tags: Fc chimera His tag, Abcam ab220590
T2 sequence (P07766 23-126, one chain of several): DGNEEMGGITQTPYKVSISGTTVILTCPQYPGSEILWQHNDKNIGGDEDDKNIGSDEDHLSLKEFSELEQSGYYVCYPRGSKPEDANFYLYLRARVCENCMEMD

[4] = target: T3, CD160 (UniProt O95971 O95971:25-159); experiment: thermofluorimetric analysis; specificity control; details: tags: Fc fusion, abcam
T3 sequence: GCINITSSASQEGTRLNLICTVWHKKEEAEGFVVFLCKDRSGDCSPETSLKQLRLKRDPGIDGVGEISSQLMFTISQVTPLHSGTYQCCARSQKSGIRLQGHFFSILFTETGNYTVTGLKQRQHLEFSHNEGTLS
Experimental: as §1
(§2) A Tₘ melting curve profile was generated by measuring SYBR green fluorescence during temperature gradient, to monitor aptamer-protein complexes in the presence of different concentrations of either Notch2 or the non-specific control (CD 160 protein). Only upon the addition of increasing concentrations of Notch2, and not CD160, a dose-dependent change in CTL3-associated fluorescence was measured (FIG. 19). When looking at the total fluorescence graph, high fluorescence intensity can be seen at 25° C., however, when examining the derivative rate of change of […] (dF/dT) curves, the temperature-dependent intensity reached a maximum at 37° C.

[5] = target: T1, Notch2; experiment: thermofluorimetric analysis with SYBR green; dose-dependent, saturates between 100-200 nM protein; details: tags: Fc fusion, R&D Systems
Experimental: as §1, §2

[6] = target: T2, CD3 epsilon; experiment: HPLC size exclusion; negative control sequence; details: tags: Fc chimera His tag, Abcam ab220590; label: Cy5
Experimental: Top five candidates (CS6, CS7, CS8, CS9, and CS8c; SEQ ID NOs: 88-92, respectively) were synthesized with a 5(5′) phosphothioated CpG motif and assayed for Human CD3ε (hCD3ε) binding via the HPLC size exclusion column. In this method, the aptamers were labelled with Cy5 complementary sequence to the CpG site (Cy5-CpG’). Then, the folded-labelled candidates are incubated, each, with the CD3ε- recombinant protein or with negative control IgG1 (1 hr at 37℃ and 4℃) and analyzed by HPLC ProSEC 300S size exclusion column (Agilent) at 570 nm absorption. Upon protein binding, the aptamer-protein complex has a greater mass than a free aptamer and as a result, the retention time (RT) at the column is expected to be shorter. Inversely, in the case of non-binding aptamer, the RT in the presence of protein will be the same as in the absence of the protein. As a control, PolyT sequence was used.

T1 sequence (Q04721 26-1677, one chain of several): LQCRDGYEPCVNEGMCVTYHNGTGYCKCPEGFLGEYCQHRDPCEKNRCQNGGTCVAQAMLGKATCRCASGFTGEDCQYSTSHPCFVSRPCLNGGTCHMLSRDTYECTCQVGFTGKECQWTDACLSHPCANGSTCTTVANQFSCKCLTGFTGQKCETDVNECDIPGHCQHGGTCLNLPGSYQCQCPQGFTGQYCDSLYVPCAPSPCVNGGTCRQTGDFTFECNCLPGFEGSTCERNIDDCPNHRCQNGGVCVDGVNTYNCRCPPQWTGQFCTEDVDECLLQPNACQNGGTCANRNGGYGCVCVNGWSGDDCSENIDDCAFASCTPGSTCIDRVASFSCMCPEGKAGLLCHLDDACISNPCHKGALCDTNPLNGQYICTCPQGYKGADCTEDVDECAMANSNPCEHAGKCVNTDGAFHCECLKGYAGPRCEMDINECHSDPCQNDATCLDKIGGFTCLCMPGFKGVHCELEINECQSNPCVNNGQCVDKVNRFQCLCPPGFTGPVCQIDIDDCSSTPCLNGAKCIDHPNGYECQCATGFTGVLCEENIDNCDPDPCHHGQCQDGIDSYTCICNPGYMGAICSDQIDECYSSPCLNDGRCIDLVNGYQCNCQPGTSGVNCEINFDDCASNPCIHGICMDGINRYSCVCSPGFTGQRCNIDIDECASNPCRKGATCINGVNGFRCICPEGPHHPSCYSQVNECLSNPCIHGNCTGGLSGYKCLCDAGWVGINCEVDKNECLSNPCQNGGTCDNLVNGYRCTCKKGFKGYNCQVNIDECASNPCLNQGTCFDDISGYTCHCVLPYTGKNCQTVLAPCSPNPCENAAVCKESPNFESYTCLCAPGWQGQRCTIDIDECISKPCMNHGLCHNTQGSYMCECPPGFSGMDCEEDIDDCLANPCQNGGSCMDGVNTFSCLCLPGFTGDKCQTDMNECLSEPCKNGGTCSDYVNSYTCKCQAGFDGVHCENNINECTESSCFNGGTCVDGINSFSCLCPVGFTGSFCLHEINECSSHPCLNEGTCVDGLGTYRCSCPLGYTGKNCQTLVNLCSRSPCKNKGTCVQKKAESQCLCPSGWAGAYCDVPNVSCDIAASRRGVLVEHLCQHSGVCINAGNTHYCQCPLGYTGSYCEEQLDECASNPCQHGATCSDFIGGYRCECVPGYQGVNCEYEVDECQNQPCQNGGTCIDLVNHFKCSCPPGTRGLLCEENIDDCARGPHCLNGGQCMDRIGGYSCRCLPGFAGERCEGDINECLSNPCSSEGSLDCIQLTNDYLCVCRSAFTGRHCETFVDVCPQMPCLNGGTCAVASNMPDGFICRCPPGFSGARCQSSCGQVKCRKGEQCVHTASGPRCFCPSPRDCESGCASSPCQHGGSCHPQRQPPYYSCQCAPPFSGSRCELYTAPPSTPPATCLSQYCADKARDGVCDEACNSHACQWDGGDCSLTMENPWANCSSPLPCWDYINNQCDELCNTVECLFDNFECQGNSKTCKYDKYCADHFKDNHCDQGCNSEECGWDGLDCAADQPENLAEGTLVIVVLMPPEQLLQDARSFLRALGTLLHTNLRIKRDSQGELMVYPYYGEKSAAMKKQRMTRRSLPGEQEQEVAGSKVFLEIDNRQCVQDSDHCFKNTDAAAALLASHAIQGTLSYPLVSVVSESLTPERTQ

B1: Scrambled-CTL3-B (ssDNA)
DNA: TCTTTCGTTAGCGCTTCTCTCTTGCGATTCCGACCGCATATTCACGTCTT
binding result [1]: no binding

B2: CpG1-CS6 (ssDNA)
DNA: TCGTCGTCGCGGTTCGCGTCCGTATCGTATAAGGGCTGCTTAGGATTGCGATAATACGGTCAA
modifications: PS on first five 5' nucleotides of CpG motif
EC50 [2]: 19.6 nM

B3: CS6 (ssDNA)
DNA: ATCGTATAAGGGCTGCTTAGGATTGCGATAATACGGTCAA
Kd [3]: 31 nM

B4: CTL3 (ssDNA)
DNA: GCATACCTTTCGTATGCCTTTTTGACCCGTATTTTTGCCCTACCCTTCGG
binding result [4]: no binding | binding result [5]: binds

B5: Scrambled-CTL3-A (ssDNA)
DNA: GTTCTTATAATCGCCTCTGCGCTATGTTCTTGCTCGCCTTCCATATCGCT
binding result [1]: no binding

B6: PolyT control (ssDNA)
DNA: TCGTCGTCGCGGTTCGCGTCCGTTTTTTTTTTTTTTTTTTTTTTTTTTTTTTTTTTTTTTTTTTTTTTTTTTT
binding result [6]: no binding
